Experimental data taken from article PMC6220978, “Induced conformational changes activate the peptidoglycan synthase PBP1B” (Molecular Microbiology, 2018).

Experiments:
Experiment in all cases: cell-based or functional assay
[1] = target: T1, PBP1B K355A (E. coli, UniProt P02919 46-844, K355A)
T1 sequence (looked up): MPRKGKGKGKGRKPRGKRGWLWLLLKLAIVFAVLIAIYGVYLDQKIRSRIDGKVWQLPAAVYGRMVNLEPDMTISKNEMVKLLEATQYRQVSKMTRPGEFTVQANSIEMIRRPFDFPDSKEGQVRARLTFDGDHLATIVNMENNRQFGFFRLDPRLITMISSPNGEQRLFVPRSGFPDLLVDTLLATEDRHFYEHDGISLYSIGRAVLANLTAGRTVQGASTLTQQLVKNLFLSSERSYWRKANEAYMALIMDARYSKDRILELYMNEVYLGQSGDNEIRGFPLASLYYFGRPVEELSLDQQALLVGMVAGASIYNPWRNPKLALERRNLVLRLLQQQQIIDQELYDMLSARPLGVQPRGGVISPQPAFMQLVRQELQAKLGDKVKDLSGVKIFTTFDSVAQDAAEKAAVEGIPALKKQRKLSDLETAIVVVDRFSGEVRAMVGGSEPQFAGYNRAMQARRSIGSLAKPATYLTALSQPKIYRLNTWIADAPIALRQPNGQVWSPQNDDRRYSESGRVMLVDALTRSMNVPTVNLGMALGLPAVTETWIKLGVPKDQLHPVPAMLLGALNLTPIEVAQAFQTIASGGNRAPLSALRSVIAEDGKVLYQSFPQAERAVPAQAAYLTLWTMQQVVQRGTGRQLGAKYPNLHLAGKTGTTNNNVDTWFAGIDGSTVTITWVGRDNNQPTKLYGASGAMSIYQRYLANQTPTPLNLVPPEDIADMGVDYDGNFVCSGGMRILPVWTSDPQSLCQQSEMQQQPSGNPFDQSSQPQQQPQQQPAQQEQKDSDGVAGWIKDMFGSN

[2] = target: T2, PBP1B (wild type, PBP1B^46-844) (E. coli, UniProt P02919 46-844)
T2 sequence (looked up): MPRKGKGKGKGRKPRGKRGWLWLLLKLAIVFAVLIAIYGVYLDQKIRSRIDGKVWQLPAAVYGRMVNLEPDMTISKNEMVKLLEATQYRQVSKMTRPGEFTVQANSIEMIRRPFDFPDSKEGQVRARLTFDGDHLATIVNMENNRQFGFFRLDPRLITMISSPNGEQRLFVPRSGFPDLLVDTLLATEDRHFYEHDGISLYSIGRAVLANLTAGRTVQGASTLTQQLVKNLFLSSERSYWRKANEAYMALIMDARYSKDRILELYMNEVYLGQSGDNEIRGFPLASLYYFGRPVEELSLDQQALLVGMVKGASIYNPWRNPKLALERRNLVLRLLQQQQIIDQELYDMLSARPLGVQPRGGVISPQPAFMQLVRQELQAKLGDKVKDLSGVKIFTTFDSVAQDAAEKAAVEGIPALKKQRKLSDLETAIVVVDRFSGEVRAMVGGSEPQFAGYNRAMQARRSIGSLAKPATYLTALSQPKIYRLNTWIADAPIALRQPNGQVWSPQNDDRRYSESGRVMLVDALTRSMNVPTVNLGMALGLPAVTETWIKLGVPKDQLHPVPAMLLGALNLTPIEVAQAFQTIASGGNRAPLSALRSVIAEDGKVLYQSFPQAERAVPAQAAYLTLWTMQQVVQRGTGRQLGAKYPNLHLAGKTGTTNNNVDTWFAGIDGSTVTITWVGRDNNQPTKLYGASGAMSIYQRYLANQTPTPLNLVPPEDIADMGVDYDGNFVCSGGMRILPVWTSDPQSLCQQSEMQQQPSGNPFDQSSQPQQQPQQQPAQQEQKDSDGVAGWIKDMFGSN

[3] = target: T3, PBP1B Q318A (E. coli, UniProt P02919 46-844, Q318A)
T3 sequence (looked up): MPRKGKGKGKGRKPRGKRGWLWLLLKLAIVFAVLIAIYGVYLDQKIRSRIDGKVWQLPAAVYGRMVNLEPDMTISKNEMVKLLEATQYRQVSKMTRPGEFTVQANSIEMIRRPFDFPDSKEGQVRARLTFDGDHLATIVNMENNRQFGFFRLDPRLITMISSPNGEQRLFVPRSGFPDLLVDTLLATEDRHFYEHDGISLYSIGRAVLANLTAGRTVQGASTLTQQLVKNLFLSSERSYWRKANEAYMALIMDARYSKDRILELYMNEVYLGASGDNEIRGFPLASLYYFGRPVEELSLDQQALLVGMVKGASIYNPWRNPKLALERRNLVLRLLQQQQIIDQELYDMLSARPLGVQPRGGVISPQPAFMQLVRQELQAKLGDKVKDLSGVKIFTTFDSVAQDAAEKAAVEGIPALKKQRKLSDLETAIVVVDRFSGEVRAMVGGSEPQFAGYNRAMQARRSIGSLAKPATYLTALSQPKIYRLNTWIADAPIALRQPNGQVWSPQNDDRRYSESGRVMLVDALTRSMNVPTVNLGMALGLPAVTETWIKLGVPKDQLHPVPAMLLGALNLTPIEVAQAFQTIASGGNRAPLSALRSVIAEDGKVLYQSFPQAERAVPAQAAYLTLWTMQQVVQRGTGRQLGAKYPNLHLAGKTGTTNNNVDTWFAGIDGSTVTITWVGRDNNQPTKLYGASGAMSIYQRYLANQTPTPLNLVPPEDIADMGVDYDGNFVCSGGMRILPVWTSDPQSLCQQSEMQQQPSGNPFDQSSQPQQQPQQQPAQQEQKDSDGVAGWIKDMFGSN

B1: LpoB (natural protein, E. coli)
chain: VGQREPAPVEEVKPAPEQPAEPQQPVPTVPSVPTIPQQPGPIEHEDQTAPPAPHIRHYDWNGAMQPMVSKMLGADGVTAGSVLLVDSVNNRTNGSLNAAEATETLRNALANNGKFTLVSAQQLSMAKQQLGLSPQDSLGTRSKAIGIARNVGAHYVLYSSASGNVNAPTLQMQLMLVQTGEIIWSGKGAVSQQ
notes: LpoB, E. coli; also called lipoprotein LpoB; source: E. coli BL21(DE3), purified (HisTrap, Superdex 200), as in Egan et al. 2014
- fold activation of the GTase rate of PBP1B K355A by LpoB [1]: ~37 fold
- GTase rate of WT PBP1B with LpoB relative to the basal rate of WT PBP1B (continuous fluorescence assay, dansylated lipid II; 0.5 μM PBP1B, 2 μM LpoB) [2]: 10.2 fold
- fold activation of the GTase rate of PBP1B Q318A by LpoB [3]: ~25 fold
